Laboratory results taken from patent publication US20250304693A1.

What was measured:
[1] = molecular target: human BTLA (B- and T-lymphocyte attenuator) on cells (human) (UniProt Q7Z6A9); experiment: FACS, primary human T cells, donor 1709, AF647 anti-human IgG Fc secondary antibody
[2] = molecular target: human BTLA (B- and T-lymphocyte attenuator) on cells (human) (UniProt Q7Z6A9); experiment: FACS competition on HEK293T.hBTLA cells; competitor hrHVEM-His-DL650
[3] = molecular target: human BTLA (B- and T-lymphocyte attenuator) on cells (human) (UniProt Q7Z6A9); experiment: FACS on HEK293 cells overexpressing human BTLA, AF647 anti-human IgG Fc detection
[4] = molecular target: cynomolgus BTLA on cells (cynomolgus); experiment: FACS on Expi293.cynoBTLA cells, AF647 anti-human IgG Fc detection
[5] = molecular target: cynomolgus BTLA on cells (cynomolgus); experiment: FACS on Expi293 cells overexpressing cynomolgus BTLA, AF647 anti-human IgG Fc detection
[6] = molecular target: human BTLA (B- and T-lymphocyte attenuator) on cells (human) (UniProt Q7Z6A9); experiment: FACS, primary human T cells, donor 149, AF647 anti-human IgG Fc secondary antibody
[7] = molecular target: human BTLA (B- and T-lymphocyte attenuator) on cells (human) (UniProt Q7Z6A9); experiment: FACS, primary human B cells, donor 149, AF647 anti-human IgG Fc secondary antibody
[8] = molecular target: human BTLA (B- and T-lymphocyte attenuator) on cells (human) (UniProt Q7Z6A9); experiment: FACS competition on HEK293.BTLA cells; competitor DL650-conjugated soluble HVEM
[9] = molecular target: human BTLA (B- and T-lymphocyte attenuator) on cells (human) (UniProt Q7Z6A9); experiment: FACS, primary human B cells, donor 1709, AF647 anti-human IgG Fc secondary antibody
[10] = molecular target: recombinant human BTLA (human) (UniProt Q7Z6A9); experiment: ELISA on recombinant human BTLA
[11] = molecular target: human BTLA (B- and T-lymphocyte attenuator) on cells (human) (UniProt Q7Z6A9); experiment: FACS on HEK293T.hBTLA cells, AF647 anti-human IgG Fc detection
[12] = molecular target: human BTLA (B- and T-lymphocyte attenuator) on cells (human) (UniProt Q7Z6A9); experiment: cell-based or functional assay

human BTLA (B- and T-lymphocyte attenuator) on cells (human), sequence (Q7Z6A9 31-289): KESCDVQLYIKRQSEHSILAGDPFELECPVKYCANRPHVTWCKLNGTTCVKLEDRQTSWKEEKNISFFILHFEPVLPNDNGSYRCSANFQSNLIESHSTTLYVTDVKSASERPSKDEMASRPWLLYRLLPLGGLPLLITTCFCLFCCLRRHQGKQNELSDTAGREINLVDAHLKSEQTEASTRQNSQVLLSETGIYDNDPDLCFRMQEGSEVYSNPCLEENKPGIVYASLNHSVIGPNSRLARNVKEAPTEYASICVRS
cynomolgus BTLA on cells (cynomolgus), sequence (chain, as listed by the source): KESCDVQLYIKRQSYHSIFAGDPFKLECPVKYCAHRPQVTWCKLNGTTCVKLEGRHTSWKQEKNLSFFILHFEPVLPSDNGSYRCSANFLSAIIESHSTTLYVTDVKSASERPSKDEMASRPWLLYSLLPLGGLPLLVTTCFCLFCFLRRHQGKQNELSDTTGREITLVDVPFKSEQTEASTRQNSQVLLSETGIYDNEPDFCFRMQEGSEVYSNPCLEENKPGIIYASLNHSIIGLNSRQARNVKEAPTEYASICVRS
recombinant human BTLA (human), sequence (Q7Z6A9 31-157 limits assumed): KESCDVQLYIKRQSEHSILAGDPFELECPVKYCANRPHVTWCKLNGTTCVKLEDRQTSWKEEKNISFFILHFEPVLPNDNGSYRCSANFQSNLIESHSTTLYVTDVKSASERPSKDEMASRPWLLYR

B1: JS004 (antibody, INN chains, looked up, V domains shown)
VH: QVQLVQSGAEVKKPGASVKLSCKASGYNFKHTYAHWVRQAPGQGLEWIGRIDPANGNTKYDPKFQGRATMTADTASNTAYLELSSLRSEDTAVYYCVADHYGSSLLDYWGQGTLVTVSS
VL: DVVMTQTPLSLSVTPGQPASISCKSSQSLLDSDGKTYLNWFQQRPGQSPRRLIYLVSKLDSGVPDRFSGSGSGTDFTLKISRVEAEDVGVYYCWQGTYFPYTFGQGTKLEIK
**Q.** What does the source list for B1?
**A.** EC50 [1]: 1.1 nM; Emax(%) [1]: 56%; IC50 [2]: 1.47 nM; EC50 [3]: 0.804 nM; EC50 [4]: 5.25 nM; EC50 [5]: 0.561 nM; EC50 [6]: 1.3 nM; Emax(%) [6]: 97%; EC50 [7]: 0.19 nM; Emax(%) [7]: 73%; IC50 [8]: 4.32 nM; EC50 [9]: 0.19 nM; Emax(%) [9]: 82%; EC50 [10]: 2.43 nM; EC50 [11]: 5.97 nM; BTLA-HVEM blockade reporter assay, EC50 [12]: 10.4 nM; Reporter EC50 [12]: 13.1 nM
